Three molecules from patent publication US20260199499A1, “ANTI-PDL1 ANTIBODY-DRUG CONJUGATE AND USE” (SHANGHAI HENLIUS BIOTECH, INC., priority 2023, published 2026) can be followed below.

For data set [1], the system named is human dendritic cells. In kind it is cell-based. How it is done: (§1) Since some human immune cells such as antigen-presenting cells (macrophages, dendritic cells, etc.) express PDL1, the immunotoxicity of PDL1-targeted antibody-conjugated drugs is an inevitable problem. Human dendritic cells and macrophages, after induced differentiation, were digested and viable cells were counted using Vi-Cell XR cytometer. The cell suspension was adjusted to an appropriate concentration with a culture medium. 80 μl/well of the cell suspension was added to a cell culture plate, which was supplemented with 500 IU/mL of IFN-γ. The test drug was diluted with a gradient (5-fold dilutions). 20 μl of each of the diluted test articles was taken and added to the cell suspension in the cell culture plate, and the cell culture plate was placed in an incubator and cultured for 96 hours. 50 μl/well of a CellTiter-Glo solution (purchased from Promega) that had been thawed in advance and equilibrated to room temperature was added according to CellTiter-Glo operation instructions. The wells were mixed uniformly with a microwell plate shaker for 2 minutes and maintained at room temperature for 10 minutes. The […] signal was measured using Envision 2104 plate reader. SGN-PDL1V was used as one of the control molecules and was disclosed in U.S. Patent No. US 20210101982 A1.

In data set [2] the test system is human macrophages. The data set is classed as cell-based. How it is done: as §1
Data set [3] is described as follows: Preliminary pre-experiment, toxicity to mice. In kind it is in vivo. The settings on record: dose of 8 mg/kg. From the text: For ethical considerations, the […] was not set in the experimental design.
The subject of data set [4] is human non-small cell lung cancer LU6437 PDX. Description: Anti-tumor effect, LU6437 PDX xenograft. The data set is classed as in vivo, BALB/c nude mice. To be noted: 3 mg/kg, once a week for three doses, day 21. How it is done: A revived tumor tissue was harvested from HuPrime® lung cancer xenograft model LU6437 tumor-bearing mice and cut into tumor blocks with a diameter of 2-3 mm, which were inoculated subcutaneously at the right anterior scapula of BALB/c nude mice. […] The average volume was 253.70 mm^3 in the actual groups. The day of grouping was defined as day 0. After the start of dosing, the mice were dosed once a week, for three doses, and the body weight and tumor size of the mice were measured twice a week. Clinical symptoms observed during the experiment were recorded. The tumor volume was calculated according to the following formula: tumor volume (mm3)=½×(a×b2) (wherein a represented the long diameter, and b represented the short diameter).

Data set [5] concerns human PDL1-positive gastric cancer LD1-0017-200636 PDX. Description: Anti-tumor effect, LD1-0017-200636 PDX xenograft. The settings on record: free loaded drug, dose not given, day 21. In kind it is in vivo, NU/NU mice. How it is done:
(§2) A human-derived PDL1-positive gastric cancer LD1-0017-200636 model was revived in NU/NU mice. Once the tumor had grown to 500-800 mm^3, the tumor tissue was surgically aseptically excised, and non-tumor tissues and necrotic tissues were removed. The tumor tissue was stripped and evenly cut into tissue blocks (about 30-60 mg) of about 3 mm×3 mm×3 mm in size, and then, which were inoculated subcutaneously on the right side of NU/NU mice. Once the average tumor volume of the mice for grouping reached 138.70 mm3, the mice were grouped randomly according to the size of the tumor volume, ensuring similar tumor volumes between groups. The day of grouping was defined as day 0. After the start of dosing, the body weight and tumor size of the mice were measured twice a week, and the mice were dosed once a week, for three doses. Clinical symptoms observed during the experiment were recorded. The tumor volume was calculated according to the following formula: tumor volume (mm3)=½×(a×b2) (wherein a represented the long diameter, and b represented the short diameter).

Data set [6] concerns human PDL1-positive cervical cancer LD1-0010-200614 PDX. Description: Anti-tumor effect, LD1-0010-200614 PDX xenograft. In kind it is in vivo, Balb/c nude mice. To be noted: free loaded drug, dose not given, day 35. The protocol:
as §2, with “cervical” for “gastric”, “LD1-0010-200614” for “LD1-0017-200636”, “Balb/c nude” for “NU/NU”, “25-35” for “30-60”, “146.74” for “138.70”

Data set [7] has as its system human PDL1-positive colorectal cancer LD1-2013-362125 PDX. Briefly: Anti-tumor effect, LD1-2013-362125 PDX xenograft. The settings on record: free loaded drug, dose not given, day 31. The data set is classed as in vivo, NU/NU mice. The protocol:
as §2, with “colorectal” for “gastric”, “LD1-2013-362125” for “LD1-0017-200636”, “25-35” for “30-60”, “156.99” for “138.70”

The target of data set [8] is T1, PDL1 on PDL1-positive cells NCI-H292 and NCI-H441 (UniProt Q9NZQ7 19-290, limits assumed).
T1 construct: whole, on cells; Human tumor cell lines; also called CD274; B7-H1
T1 sequence (Q9NZQ7 19-290 limits assumed): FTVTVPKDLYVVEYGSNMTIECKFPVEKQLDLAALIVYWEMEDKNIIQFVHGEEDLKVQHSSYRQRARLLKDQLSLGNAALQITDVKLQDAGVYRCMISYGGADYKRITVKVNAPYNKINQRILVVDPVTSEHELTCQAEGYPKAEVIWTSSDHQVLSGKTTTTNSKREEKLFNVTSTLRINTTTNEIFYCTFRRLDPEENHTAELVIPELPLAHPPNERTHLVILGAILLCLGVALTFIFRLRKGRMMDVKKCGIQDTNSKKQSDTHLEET
Description: flow cytometry on NCI-H292 cells, goat anti-human IgG detection. (Flow cytometry measures light scatter and fluorescence of single cells or particles in a stream.)

One may read the TGI as how far tumour growth fell short of that in controls. High values mean much slowing of growth, low ones little slowing of growth. As to “SGN-PDL1V: reference ADC of WO 2021067776 A1: SGN-PDL1V antibody moiety conjugated to MC-VC-PABC-MMAE [reference compound]”, the “concentration at which non-specific killing resulted” value in data set [1] and in data set [2] was “above 20 nM” in each case. The toxicity to mice entry in data set [3] is recorded as “severely lethal toxicity”. The molecule also displayed a TGI in data set [4] of 24.11%.
Turning to `CC[C@@]1(O)C(=O)OCc2c1cc1n(c2=O)Cc2c-1nc1cc3c(cc1c2CCCO)OCO3` [A1.3, (S)-7-ethyl-7-hydroxy-14-(3-hydroxypropyl)-10,13-dihydro-11H-[1,3]dioxolo[4,5-g]pyrano[3′,4′,6,7]indolizino[1,2-b]quinoline-8,11(7H)-dione], the results for the TGI in data set [5], in data set [6] and in data set [7] were 34.12%, 56.5% and 37.16%, respectively.

B1: MAB20 (antibody, human IgG1, lambda, N297A, V domains shown)
VH: EVQLVQSGGGLVKPGGSLRLSCAASGFTFSSYTMNWVRQAPGKGLEWVSSISSGSDYLYYADSVKGRFTISRDNAKNSLYLQMNSLRAEDTAVYYCARNELRWYPQAGAFDRWGQGTMVTVSS
VL: QSVVTQPPSMSAAPGQRVTISCSGSSSYIESSYVGWYQQLPGTAPRLLIYDDDMRPSGIPDRFSGSKSGTSATLAITGLQTGDEADYYCEIWRSGLGGVFGGGTKLTVLS
notes: also called anti-PDL1 antibody MAB20; Anti-PDL1_mAb
For B1, the binding result in data set [8] is “binds”.
